In article PMC7501880:

Biological target: DIP-α^Nectin1 chimera (human | Drosophila) (UniProt Q15223)
Assay: SPR

Substance “Dpr10^Nectin3 chimera (from UniProt Q9NQS3 58-167)” has a Kd of less than 5 mM.
